In assay [1] the target is ShAb01H02K (knob-in-hole heterodimer of ShAb01-Fc and ShAb02-Fc) (nurse shark (Ginglymostoma cirratum)). As to the kind of experiment: BLI.
In assay [2] the target is BiShAb0201 (ShAb02 VNAR - (GGGGS)5 - ShAb01 VNAR - human IgG1 Fc) (nurse shark (Ginglymostoma cirratum)). As to the kind of experiment: BLI.

In assay [1], “SARS-CoV-2 WA-1 spike receptor binding domain (RBD) (from UniProt P0DTC2 331-527) (domain or fragment)” yielded a Kd of 0.57 nM, a koff of 6.98e-05 s⁻¹ and a kon of 122000 M⁻¹ s⁻¹. In assay [2], this substance had a Kd of 1.07 nM, a koff of 2.82e-05 s⁻¹ and a kon of 26300 M⁻¹ s⁻¹.

The record behind these values is publication PMC9896449.
